The nature of data set [1]: Intraocular pharmacokinetic evaluation after intravitreal injection (ELISA of vitreous, retina, aqueous humor). Type of data set: in vivo, New Zealand White (NZW) rabbit. Here is the method: Bevacizumab drug control, hydrogel (in situ forming hydrogel) in Comparative Example, and hydrogel rod in Example were injected. The rabbits were sacrificed on days 1, 4, 8, 14, 30, 60, 90, and 120. In order to maintain its drug efficacy, the concentration of drug must be maintained from vitreous humor to retina, while the drug may be eliminated to the anterior chamber site. For evaluation, pharmacokinetic analysis of vitreous, retina, and aqueous humor tissues was conducted through ELISA after animal sacrifice and ocular separation by date.
After animal sacrifice and ocular separation by date, pharmacokinetic analysis of vitreous, retina, and aqueous tissues was performed via ELISA. […] The hydrogel rod of Example is a pre-crosslinking matrix, and, after the initial burst release is inhibited by 7 times compared to the control and 3 times compared to the hydrogel of Comparative Example, the drug was continuously released within a certain range and the drug concentration of about 32 µg/mL was maintained on 120 day, satisfying a level above […] which is the drug efficacy threshold of bevacizumab.

Data set [2] has as its system human umbilical vein endothelial cells (HUVECs). Kind of data set: WST-1 assay, growth inhibition of HUVEC by released drug. Type of data set: cell-based. The note with it: released drug samples diluted 1:1 in culture medium; fresh bevacizumab 1, 10, 100 µg/mL. As for the experimental part: The long-term efficacy and biological stability of drugs released were evaluated through culture of human umbilical vein endothelial cells (HUVECs), which are cells that are involved in angiogenesis. After culturing HUVECs, they were prepared in 2×10^4 cells/well in a 48-well plate and treated with the long-term released bevacizumab drug samples diluted in 1:1 ratio in a cell culture medium (EBM media containing EGM supplements and 1% P/S) and fresh bevacizumab drug samples by concentration so as to observe cell growth inhibition and safety. For the control of fresh bevacizumab drug samples by concentration, preparation was performed at final concentrations of 1, 10, and 100 µg/mL, diluted in cell culture media.
A general note: Tetrazolium assays rely on reduction of a dye to a coloured formazan, in cell work by metabolically active cells.

As to bevacizumab, the “initial excess elimination maintained until” value in data set [1] (aqueous humor (drainway)) came out at 30 days. Also, the elimination curve result in data set [1] (retina) and in data set [1] (vitreous) was “fastest elimination curve” each time. In addition, the “inhibition of HUVEC cell growth (WST-1)” value in data set [2] is “inhibition of cell growth in proportion to the concentration of the drug”.

The values above are taken from patent US20250161537A1, “IN-SITU INJECTABLE HYDROGEL ROD USING CROSSLINKED HYDROGEL, METHOD FOR MANUFACTURING SAME, AND BIOMEDICAL USE THEREOF” (AJOU UNIVERSITY INDUSTRY-ACADEMIC COOPERATION FOUNDATION, priority 2022, published 2025).
